B1: TRIM21 coiled-coil (T21CC235; residues 129-235) (domain or fragment, UniProt P19474 129-235, looked up)
chain: EEAAQEYQEKLQVALGELRRKQELAEKLEVEIAIKRADWKKTVETQKSRIHAEFVQQKNFLVEEEQRQLQELEKDEREQLRILGEKEAKLAQQSQALQELISELDRR
B2: TRIM21 RING-Box-Coiled-Coil (T21RBCC; residues 1-235) (domain or fragment, UniProt P19474 1-235, looked up)
chain: MASAARLTMMWEEVTCPICLDPFVEPVSIECGHSFCQECISQVGKGGGSVCPVCRQRFLLKNLRPNRQLANMVNNLKEISQEAREGTQGERCAVHGERLHLFCEKDGKALCWVCAQSRKHRDHAMVPLEEAAQEYQEKLQVALGELRRKQELAEKLEVEIAIKRADWKKTVETQKSRIHAEFVQQKNFLVEEEQRQLQELEKDEREQLRILGEKEAKLAQQSQALQELISELDRR

Tests used:
[1] = target: the molecule itself; experiment: SEC-MALS
[2] = target: the molecule itself; experiment: AUC

| Protein | stoichiometry N [1] | binding result [2] |
| --- | --- | --- |
| B1 | 2 |  |
| B2 |  | binds |

— PMC7611929 (Nature structural & molecular biology, 2021)
